Biological target: melanoma-associated proteoglycan expressed on M21 and SKMel63 melanoma cells (UniProt Q6UVK1)
Assay: cell-based or functional assay

UniProt Q6UVK1, sequence (Q6UVK1 30-2322 limits assumed): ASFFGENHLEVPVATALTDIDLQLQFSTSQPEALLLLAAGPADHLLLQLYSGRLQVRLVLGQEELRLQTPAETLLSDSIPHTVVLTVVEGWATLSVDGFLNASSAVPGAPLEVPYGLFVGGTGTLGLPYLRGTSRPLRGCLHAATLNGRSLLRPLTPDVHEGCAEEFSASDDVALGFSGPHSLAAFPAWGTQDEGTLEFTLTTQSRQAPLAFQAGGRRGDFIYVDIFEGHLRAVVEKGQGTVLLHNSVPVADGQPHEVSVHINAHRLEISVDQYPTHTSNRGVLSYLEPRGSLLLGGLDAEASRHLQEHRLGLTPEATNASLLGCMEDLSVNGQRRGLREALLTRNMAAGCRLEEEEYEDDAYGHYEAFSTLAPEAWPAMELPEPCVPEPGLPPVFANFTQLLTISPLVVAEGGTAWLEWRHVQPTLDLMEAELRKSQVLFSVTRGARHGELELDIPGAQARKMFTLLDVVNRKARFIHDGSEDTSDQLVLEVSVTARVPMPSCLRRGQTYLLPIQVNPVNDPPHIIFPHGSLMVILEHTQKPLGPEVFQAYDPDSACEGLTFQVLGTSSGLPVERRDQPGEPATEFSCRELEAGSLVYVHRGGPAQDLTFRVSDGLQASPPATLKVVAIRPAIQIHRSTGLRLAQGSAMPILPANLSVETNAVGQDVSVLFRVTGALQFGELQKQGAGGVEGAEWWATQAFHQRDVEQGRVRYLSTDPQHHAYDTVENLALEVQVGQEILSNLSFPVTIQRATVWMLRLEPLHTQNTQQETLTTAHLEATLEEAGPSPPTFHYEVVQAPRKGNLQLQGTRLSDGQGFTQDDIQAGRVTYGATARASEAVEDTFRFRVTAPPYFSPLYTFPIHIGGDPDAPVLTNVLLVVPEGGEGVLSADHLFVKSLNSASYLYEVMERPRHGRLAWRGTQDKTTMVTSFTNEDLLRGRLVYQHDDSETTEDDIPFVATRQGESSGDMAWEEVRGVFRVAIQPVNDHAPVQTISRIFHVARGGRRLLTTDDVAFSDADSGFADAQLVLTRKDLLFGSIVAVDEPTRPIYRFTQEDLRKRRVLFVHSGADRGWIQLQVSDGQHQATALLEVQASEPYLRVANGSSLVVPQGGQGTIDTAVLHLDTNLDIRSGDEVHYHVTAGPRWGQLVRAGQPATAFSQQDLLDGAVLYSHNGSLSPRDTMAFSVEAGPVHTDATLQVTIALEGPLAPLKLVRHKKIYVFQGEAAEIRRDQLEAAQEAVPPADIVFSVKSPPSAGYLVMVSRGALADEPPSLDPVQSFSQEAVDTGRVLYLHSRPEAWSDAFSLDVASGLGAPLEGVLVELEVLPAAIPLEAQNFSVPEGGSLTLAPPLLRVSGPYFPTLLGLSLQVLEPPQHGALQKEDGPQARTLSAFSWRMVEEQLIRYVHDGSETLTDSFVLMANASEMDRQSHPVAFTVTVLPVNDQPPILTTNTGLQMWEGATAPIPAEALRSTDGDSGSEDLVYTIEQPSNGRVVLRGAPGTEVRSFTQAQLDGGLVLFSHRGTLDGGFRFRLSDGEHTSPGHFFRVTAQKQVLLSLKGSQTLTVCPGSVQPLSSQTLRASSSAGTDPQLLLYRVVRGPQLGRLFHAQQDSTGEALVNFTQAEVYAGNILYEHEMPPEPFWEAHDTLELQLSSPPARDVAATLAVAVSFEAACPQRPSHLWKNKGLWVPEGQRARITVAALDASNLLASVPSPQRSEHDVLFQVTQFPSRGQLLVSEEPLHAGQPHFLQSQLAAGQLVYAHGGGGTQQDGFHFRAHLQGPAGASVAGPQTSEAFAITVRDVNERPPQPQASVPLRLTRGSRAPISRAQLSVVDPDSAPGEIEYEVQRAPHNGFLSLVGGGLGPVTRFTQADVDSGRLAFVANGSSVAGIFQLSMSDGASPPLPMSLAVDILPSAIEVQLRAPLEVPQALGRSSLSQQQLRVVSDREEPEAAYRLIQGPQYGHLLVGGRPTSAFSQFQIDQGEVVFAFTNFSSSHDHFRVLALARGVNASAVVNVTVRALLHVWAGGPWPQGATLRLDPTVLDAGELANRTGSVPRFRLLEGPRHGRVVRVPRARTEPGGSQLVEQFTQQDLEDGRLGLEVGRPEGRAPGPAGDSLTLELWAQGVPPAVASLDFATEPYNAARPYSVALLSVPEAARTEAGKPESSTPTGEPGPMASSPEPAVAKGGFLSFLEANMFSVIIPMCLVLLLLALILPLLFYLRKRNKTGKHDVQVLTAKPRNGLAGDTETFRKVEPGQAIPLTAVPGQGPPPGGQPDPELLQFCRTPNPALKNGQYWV

T cell proliferation (3H-thymidine uptake) of PBMC in the presence of irradiated SKMel63 cells: > 300 ng/mL
Substance: chemically hybridized bispecific F(ab')2 fragment with melanoma (9.2.27) and CD28 (9.3) specificity (cM28) (bispecific antibody)

Reference: patent US20050244416A1
